Experimental data: patent EP1469082A1 (Boehringer Ingelheim International GmbH, dated 2004)

How the values were obtained:
[1] = biological target: T1, APC7 fragment containing the N-terminal 297 amino acids (human, UniProt Q9UJX3 1-297, limits assumed); test: peptide binding assay with recombinant APC7 fragments
T1 construct: Recombinantly expressed fragment; also called APC7 N-terminal fragment

[2] = biological target: T2, APC7 C-terminal part (amino acids 298 to 565) comprising the block of TPRs (human, UniProt Q9UJX3 298-565, limits assumed); test: as above
T2 construct: Recombinantly expressed fragment; also called APC7 TPR domain; APC7 C-terminal fragment

[3] = biological target: T3, recombinant HisHA-tagged APC5 (UniProt Q9UJX4 1-755); test: peptide matrix pull-down from insect cell lysate, western blot
T3 construct: Expressed from baculovirus and used as insect cell lysate; not shown: HisHA tag

[4] = biological target: T4, recombinant HisHA-tagged APC8 (UniProt Q9UJX2 1-597); test: as above
T4 construct: Expressed from baculovirus and used as insect cell lysate; also called APC8/CDC23; not shown: HisHA tag

[5] = biological target: T5, native CDC26 from late-eluting Q column fractions of HeLa extract (human, UniProt Q8NHZ8 1-85); test: peptide matrix pull-down from late-eluting Q column fractions, western blot
T5 construct: Endogenous protein in anion exchange fractions

[6] = biological target: T6, holo-APC (Anaphase Promoting Complex / cyclosome) from HeLa cells (human, UniProt Q9H1A4 1-1944; Q9UJX6 1-822; P30260 1-824; Q9UJX5 1-808; Q9UJX4 1-755; Q13042 …); test: peptide matrix pull-down from APC-containing fractions, western blot
T6 construct: Native multisubunit complex with 11 known subunits; It carries substoichiometric amounts of endogenous CDH1; also called immunopurified APC; APC-IPs

[7] = biological target: T7, recombinant HisHA-tagged APC3 (human, UniProt P30260 1-824); test: peptide matrix pull-down from insect cell lysate, western blot
T7 construct: Expressed from baculovirus in Sf9 or Hi5 cells and used as insect cell lysate; also called APC3/CDC27; not shown: HisHA tag
T7 sequence (P30260 whole entry): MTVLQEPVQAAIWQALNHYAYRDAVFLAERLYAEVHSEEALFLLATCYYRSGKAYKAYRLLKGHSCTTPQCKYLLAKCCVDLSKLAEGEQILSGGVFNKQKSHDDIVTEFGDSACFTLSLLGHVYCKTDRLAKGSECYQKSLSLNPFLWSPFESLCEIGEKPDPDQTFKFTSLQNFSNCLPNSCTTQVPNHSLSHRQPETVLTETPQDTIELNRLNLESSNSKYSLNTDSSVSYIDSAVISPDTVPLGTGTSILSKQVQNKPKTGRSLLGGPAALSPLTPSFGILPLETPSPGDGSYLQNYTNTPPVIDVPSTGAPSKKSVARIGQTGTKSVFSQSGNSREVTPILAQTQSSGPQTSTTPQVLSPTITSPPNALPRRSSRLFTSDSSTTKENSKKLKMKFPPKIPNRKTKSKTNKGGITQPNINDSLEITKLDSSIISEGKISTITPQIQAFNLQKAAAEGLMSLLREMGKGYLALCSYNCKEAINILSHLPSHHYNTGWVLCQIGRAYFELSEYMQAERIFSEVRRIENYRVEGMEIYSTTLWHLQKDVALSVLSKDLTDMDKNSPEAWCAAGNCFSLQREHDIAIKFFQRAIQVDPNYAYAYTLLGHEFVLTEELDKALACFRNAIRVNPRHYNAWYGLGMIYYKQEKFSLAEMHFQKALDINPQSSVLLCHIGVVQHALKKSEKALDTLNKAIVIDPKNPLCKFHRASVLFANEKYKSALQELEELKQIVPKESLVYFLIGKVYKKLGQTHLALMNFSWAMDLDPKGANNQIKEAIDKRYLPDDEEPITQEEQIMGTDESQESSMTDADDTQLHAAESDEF

T3 sequence (Q9UJX4 whole entry): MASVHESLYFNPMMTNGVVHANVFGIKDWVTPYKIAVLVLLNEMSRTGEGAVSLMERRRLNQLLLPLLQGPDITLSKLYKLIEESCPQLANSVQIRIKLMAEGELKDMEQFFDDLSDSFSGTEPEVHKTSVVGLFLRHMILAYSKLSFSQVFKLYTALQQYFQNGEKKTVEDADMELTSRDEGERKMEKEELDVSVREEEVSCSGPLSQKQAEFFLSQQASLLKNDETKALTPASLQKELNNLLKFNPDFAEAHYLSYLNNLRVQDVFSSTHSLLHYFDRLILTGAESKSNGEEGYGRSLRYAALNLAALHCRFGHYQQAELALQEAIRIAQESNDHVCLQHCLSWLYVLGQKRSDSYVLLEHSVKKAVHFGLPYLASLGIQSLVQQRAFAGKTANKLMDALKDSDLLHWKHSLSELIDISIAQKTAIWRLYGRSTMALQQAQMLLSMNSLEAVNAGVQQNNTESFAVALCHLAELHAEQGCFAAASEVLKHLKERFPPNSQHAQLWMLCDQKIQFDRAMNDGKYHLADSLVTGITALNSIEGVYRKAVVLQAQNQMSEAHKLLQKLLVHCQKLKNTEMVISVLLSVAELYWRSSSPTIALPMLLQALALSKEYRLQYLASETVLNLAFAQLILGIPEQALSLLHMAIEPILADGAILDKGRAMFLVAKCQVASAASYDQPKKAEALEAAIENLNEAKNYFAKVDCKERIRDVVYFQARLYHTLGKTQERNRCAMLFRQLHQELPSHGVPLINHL
T4 sequence (Q9UJX2 whole entry): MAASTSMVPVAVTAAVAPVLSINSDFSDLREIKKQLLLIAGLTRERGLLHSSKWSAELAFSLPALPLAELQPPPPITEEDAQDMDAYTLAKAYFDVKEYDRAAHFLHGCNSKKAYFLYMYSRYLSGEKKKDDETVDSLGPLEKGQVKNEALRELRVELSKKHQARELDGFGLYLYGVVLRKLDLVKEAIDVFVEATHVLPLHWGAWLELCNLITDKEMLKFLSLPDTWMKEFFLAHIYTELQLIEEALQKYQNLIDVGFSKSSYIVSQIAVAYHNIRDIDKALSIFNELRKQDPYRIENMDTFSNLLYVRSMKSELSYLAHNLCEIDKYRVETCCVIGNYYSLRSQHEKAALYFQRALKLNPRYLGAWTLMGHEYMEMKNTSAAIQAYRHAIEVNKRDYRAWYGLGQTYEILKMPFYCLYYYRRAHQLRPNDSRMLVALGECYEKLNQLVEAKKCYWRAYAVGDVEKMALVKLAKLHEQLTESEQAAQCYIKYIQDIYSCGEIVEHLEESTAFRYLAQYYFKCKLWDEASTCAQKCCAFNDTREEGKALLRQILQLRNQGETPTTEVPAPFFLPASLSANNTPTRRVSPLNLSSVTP
T2 sequence (Q9UJX3 298-565 limits assumed): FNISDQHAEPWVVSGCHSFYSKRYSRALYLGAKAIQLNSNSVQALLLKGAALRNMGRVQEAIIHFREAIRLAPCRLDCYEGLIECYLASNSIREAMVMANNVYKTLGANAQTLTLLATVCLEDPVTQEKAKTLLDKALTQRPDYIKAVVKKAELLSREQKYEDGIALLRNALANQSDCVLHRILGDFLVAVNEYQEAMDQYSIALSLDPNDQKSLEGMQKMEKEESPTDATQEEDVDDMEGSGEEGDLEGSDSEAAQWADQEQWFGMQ
T1 sequence (Q9UJX3 1-297 limits assumed): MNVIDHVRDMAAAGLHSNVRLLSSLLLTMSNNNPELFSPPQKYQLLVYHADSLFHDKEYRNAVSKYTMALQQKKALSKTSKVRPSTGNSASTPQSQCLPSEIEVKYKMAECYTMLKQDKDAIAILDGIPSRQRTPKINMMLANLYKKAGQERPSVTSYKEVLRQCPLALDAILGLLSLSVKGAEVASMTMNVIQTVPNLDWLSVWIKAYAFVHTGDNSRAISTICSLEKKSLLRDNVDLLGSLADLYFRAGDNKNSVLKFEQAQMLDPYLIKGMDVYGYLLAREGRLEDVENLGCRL
T5 sequence (Q8NHZ8 whole entry): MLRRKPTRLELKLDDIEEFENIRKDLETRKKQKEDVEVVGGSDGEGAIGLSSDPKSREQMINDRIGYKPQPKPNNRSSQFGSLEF

B1: CDH1 C-terminal peptide CFSKTRSTKESVSVLNLFTRIR (peptide)
peptide: CFSKTRSTKESVSVLNLFTRIR
notes: Synthetic peptide; also called CDH1 C-terminus; CDH1 peptide
[1]
  binding result: no binding
[2]
  binding result: binds
[3]
  binding result: no binding
[4]
  binding result: no binding
[5]
  binding result: no binding

B2: CDC20 C-terminal peptide CLRREREKASTSKSSLIHQGIR (peptide)
peptide: CLRREREKASTSKSSLIHQGIR
notes: Synthetic peptide; also called CDC20 C-terminus; CDC20 peptide
[2]
  binding result: binds
[3]
  binding result: no binding
[4]
  binding result: no binding

## CAVWSLSSCKPGFGVD [control peptide CAVWSLSSCKPGFGVD]
[6]
  binding result: no binding
[7]
  binding result: no binding
